Laboratory results published in publication PMC11880322.
Substitutions are numbered along the chain they refer to.

B1: ss-W10 (ssDNA)
DNA: TCTGATTCGGGGTCATCCGAGTCGAGAAAACGCCTG
B2: ss-W2 (ssDNA)
DNA: B1 DNA with G4A, T6A, A28G, A30G
B3: ss-W12 (ssDNA)
DNA: TCTGATTCGGGGTCATCCGAGTCGAGAGAGCGCAAA
B4: ss-W11 (ssDNA)
DNA: TCTGATTCGGGGTCATCCGAGTCGAGAGAGAAACTG
B5: ss-W1 (ssDNA)
DNA: AAAGATTCGGGGTCATCCGAGTCGAGAGAGCGCCTG
B6: ss-W9 (ssDNA)
DNA: B1 DNA with G26A, A28G, A30G

These binders were tested against ∆14-PrfaH (IncX3 plasmid pHNYX644 …, UniProt A0A0C5EQ24 1-155) (assay: EMSA).

Row | Binder | binding result
1 | B1 | binds
2 | B2 | binds
3 | B3 | binds
4 | B4 | binds
5 | B5 | binds
6 | B6 | binds
